Positions count from the first letter of the chain named. Numbers in names are those of the source.
B1: YWHAE-Cherry recombinant protein (natural protein, UniProt P62258 1-255, looked up)
chain: MDDREDLVYQAKLAEQAERYDEMVESMKKVAGMDVELTVEERNLLSVAYKNVIGARRASWRIISSIEQKEENKGGEDKLKMIREYRQMVETELKLICCDILDVLDKHLIPAANTGESKVFYYKMKGDYHRYLAEFATGNDRKEAAENSLVAYKAASDIAMTELPPTHPIRLGLALNFSVFYYEILNSPDRACRLAKAAFDDAIAELDTLSEESYKDSTLIMQLLRDNLTLWTSDMQGDGEEQNKEALQDVEDENQ
notes: YWHAE (14-3-3ε), Uniprot No. P62258; also called recombinant YWHAE protein; source: bought: Dai-An Biotechnology (Wuhan); expressed by E. coli BL21 (DE3), purity >90% by SDS-PAGE; not shown: mCherry, C-terminal, kept
B2: WT DDR1-EGFP co-expressed with mCherry-WT DDR1 (dual-color FRAP) (receptor, human, UniProt Q08345 19-913, looked up)
chain: DADMKGHFDPAKCRYALGMQDRTIPDSDISASSSWSDSTAARHSRLESSDGDGAWCPAGSVFPKEEEYLQVDLQRLHLVALVGTQGRHAGGLGKEFSRSYRLRYSRDGRRWMGWKDRWGQEVISGNEDPEGVVLKDLGPPMVARLVRFYPRADRVMSVCLRVELYGCLWRDGLLSYTAPVGQTMYLSEAVYLNDSTYDGHTVGGLQYGGLGQLADGVVGLDDFRKSQELRVWPGYDYVGWSNHSFSSGYVEMEFEFDRLRAFQAMQVHCNNMHTLGARLPGGVECRFRRGPAMAWEGEPMRHNLGGNLGDPRARAVSVPLGGRVARFLQCRFLFAGPWLLFSEISFISDVVNNSSPALGGTFPPAPWWPPGPPPTNFSSLELEPRGQQPVAKAEGSPTAILIGCLVAIILLLLLIIALMLWRLHWRRLLSKAERRVLEEELTVHLSVPGDTILINNRPGPREPPPYQEPRPRGNPPHSAPCVPNGSALLLSNPAYRLLLATYARPPRGPGPPTPAWAKPTNTQAYSGDYMEPEKPGAPLLPPPPQNSVPHYAEADIVTLQGVTGGNTYAVPALPPGAVGDGPPRVDFPRSRLRFKEKLGEGQFGEVHLCEVDSPQDLVSLDFPLNVRKGHPLLVAVKILRPDATKNARNDFLKEVKIMSRLKDPNIIRLLGVCVQDDPLCMITDYMENGDLNQFLSAHQLEDKAAEGAPGDGQAAQGPTISYPMLLHVAAQIASGMRYLATLNFVHRDLATRNCLVGENFTIKIADFGMSRNLYAGDYYRVQGRAVLPIRWMAWECILMGKFTTASDVWAFGVTLWEVLMLCRAQPFGQLTDEQVIENAGEFFRDQGRQVYLSRPPACPQGLYELMLRCWSRESEQRPPFSQLHRFLAEDALNTV
notes: human DDR1, DDR1b isoform, from a plasmid with full-length DDR1b; Two differently tagged copies of the same protein in one cell: each copy has only one of the two fluorescent proteins; The mCherry copy is held by an anti-mCherry polyclonal antibody, the EGFP copy is the one whose mobility is read; also called DDR1 (WT)-GFP; mCherry-DDR1 (WT); source: EA.hy926 ECs, transfected, in living cells; …
B3: locked DDR1-EGFP (D189C/F364C) co-expressed with mCherry-locked DDR1 (dual-color FRAP) (receptor, human, UniProt Q08345 19-913, looked up)
chain: B2 chain with D171C, F346C
notes: human DDR1, DDR1b isoform, DS-like domain locked by two cysteines; Two differently tagged copies of the same mutant in one cell, as for m3; also called DS-like locked mutant; source: EA.hy926 ECs, transfected, in living cells; not shown: EGFP (on one copy); mCherry (on the other copy)

Tests used:
DDR1 (416-913aa)-EGFP = target: T1, DDR1 (416-913aa)-EGFP (human, UniProt Q08345 416-913); test: cell-free droplet (phase separation) assay + turbidity; purified DDR1-C or DDR1-N (5 μM) incubated with varying concentrations of YWHAE-Cherry; 20 mM Tris-HCl pH 7.0, 75 mmol/L KCl, 1 mmol/L DTT, 4 °C 5-10 min, confocal imaging; turbidity at 600 nm with 5% PEG8000; conditions: both partners purified
T1 construct: human DDR1 (DDR1b), residues 416-913, containing the transmembrane and cytosolic domains; also called DDR1-C; source: E. coli Transetta (DE3), purified (Ni-NTA)

[1] = target: the molecule itself; test: dual-color FRAP with antibody immobilisation; EA.hy926 ECs co-expressing DDR1-EGFP and mCherry-DDR1, 5 min pre-shear; anti-mCherry polyclonal antibody immobilises the mCherry copy, lateral mobility of the EGFP copy read by FRAP

Binder	binding result (DDR1 (416-913aa)-EGFP)	FRAP recovery ratio of the EGFP copy with the mCherry copy immobilised [1] [%]
B1	binds	–
B2	–	49.2 ± 9.6
B3	–	67.6 ± 4
